For one substance, stoichiometry N results are on record in publication PMC8556157.

The assay concerns the target Type 4 LDH (BL105A_0985), aromatic lactate dehydrogenase (ALDH) of B. longum ssp. longum 105-A (Bifidobacterium longum ssp. longum 105-A) (UniProt Q8G593). The assay is described as follows: SEC; native molecular mass of the purified recombinant enzyme estimated by size exclusion chromatography (Supplementary Fig. 7b); dimer of the 33.9 kDa chain.

As for “Type 4 LDH (BL105A_0985), aromatic lactate dehydrogenase (ALDH) of B. longum ssp. longum 105-A (from UniProt Q8G593 1-545) (enzyme)”, the stoichiometry N was 2.

As usually defined, the stoichiometry N is the number of molecules, sites or subunits per partner or assembly.
